Data from PMC3435109 (2012).

B1: RIIβ 108-268 (protein)
chain: TRRASVCAEAYNPDEEEDDAESRIIHPKTDDQRNRLQEACKDILLFKNLDPEQMSQVLDAMFEKLVKEGEHVIDQGDDGDNFYVIDRGTFDIYVKCDGVGRCVGNYDNRGSFGELALMYNTPRAATITATSPGALWGLDRVTFRRIIVKNNAKKRKMYESF
B2: RIIβ 102-265 (protein)
chain: PVINRFTRRASVCAEAYNPDEEEDDAESRIIHPKTDDQRNRLQEACKDILLFKNLDPEQMSQVLDAMFEKLVKEGEHVIDQGDDGDNFYVIDRGTFDIYVKCDGVGRCVGNYDNRGSFGELALMYNTPRAATITATSPGALWGLDRVTFRRIIVKNNAKKRKMY

Target: PKA catalytic subunit (Mus musculus, UniProt P05132)
Test: SPR

Row | Kd [nM] | Binder
1 | 11.3 | B1
2 | 0.6 | B2
